In US20230365662A1:
Changes are numbered by the printed parent chain. Names may count otherwise. “And” between values parts separate entries of the source, which are not always exact repeats. Identical values can stand only once.

B1: KB001 mouse Fab FASEBA VH L29V (Fab, V domains shown)
VH: EVQLKQSGPGLVAPSQSLSITCTVSGFSVSIYSVHWVRQPPGKGLEWLGMIWGGGSSDYNSALKSRLSISKDNSKSQVFLKMNSLQTDDTAMYYCARNGNFYAMDYWGQGTSVTVSS
VL: QIVLTQSPAIMSASLGERVTMTCTASSSVSSSFLHWYQQKPGSSPQLWIYSTSNLASGVPARFSGSGSGTSYSLTISSMEAEDAATYYCHQYHHSPYIYTFGGGTKLEIK
B2: KB001 mouse Fab FASEBA VH S30Q (Fab, V domains shown)
VH: B1 VH with V29L, S30Q
VL: B1 VL
B3: KB001 mouse Fab FASEBA VH D58G (Fab, V domains shown)
VH: B1 VH with V29L, D58G
VL: B1 VL
B4: KB001 mouse Fab FASEBA VH I31F (Fab, V domains shown)
VH: B1 VH with V29L, I31F
VL: B1 VL
B5: KB001 mouse Fab FASEBA VH D58S (Fab, V domains shown)
VH: B1 VH with V29L, D58S
VL: B1 VL
B6: KB001 mouse Fab FASEBA VH I51V (Fab, V domains shown)
VH: B1 VH with V29L, I51V
VL: B1 VL
B7: KB001 mouse Fab FASEBA VH S57H (Fab, V domains shown)
VH: B1 VH with V29L, S57H
VL: B1 VL
B8: KB001 mouse Fab FASEBA VH S56N (Fab, V domains shown)
VH: B1 VH with V29L, S56N
VL: B1 VL
B9: KB001 mouse Fab FASEBA VH S30F (Fab, V domains shown)
VH: B1 VH with V29L, S30F
VL: B1 VL
B10: KB001 mouse Fab FASEBA VH Y59K (Fab, V domains shown)
VH: B1 VH with V29L, Y59K
VL: B1 VL
B11: KB001 mouse Fab FASEBA VH S30K (Fab, V domains shown)
VH: B1 VH with V29L, S30K
VL: B1 VL
B12: KB001 mouse Fab FASEBA VH S30T (Fab, V domains shown)
VH: B1 VH with V29L, S30T
VL: B1 VL
B13: KB001 mouse Fab FASEBA VH S30M (Fab, V domains shown)
VH: B1 VH with V29L, S30M
VL: B1 VL
B14: KB001 mouse Fab FASEBA VH I51Q/M92I (Fab, V domains shown)
VH: B1 VH with V29L, I51Q, M92I
VL: B1 VL
B15: KB001 mouse Fab FASEBA VH G55D (Fab, V domains shown)
VH: B1 VH with V29L, G55D
VL: B1 VL
B16: KB001 mouse Fab FASEBA VH H35V (Fab, V domains shown)
VH: B1 VH with V29L, H35V
VL: B1 VL
B17: KB001 mouse Fab FASEBA VH S56L (Fab, V domains shown)
VH: B1 VH with V29L, S56L
VL: B1 VL
B18: KB001 mouse Fab FASEBA VH I31L (Fab, V domains shown)
VH: B1 VH with V29L, I31L
VL: B1 VL
B19: KB001 mouse Fab FASEBA VH S30H (Fab, V domains shown)
VH: B1 VH with V29L, S30H
VL: B1 VL
B20: KB001 mouse Fab FASEBA VH I31P (Fab, V domains shown)
VH: B1 VH with V29L, I31P
VL: B1 VL
B21: KB001 mouse Fab FASEBA VH S57M (Fab, V domains shown)
VH: B1 VH with V29L, S57M
VL: B1 VL
B22: KB001 mouse Fab FASEBA VH S56P (Fab, V domains shown)
VH: B1 VH with V29L, S56P
VL: B1 VL
B23: KB001 mouse Fab FASEBA VH S57T (Fab, V domains shown)
VH: B1 VH with V29L, S57T
VL: B1 VL
B24: KB001 mouse Fab FASEBA VH S56T (Fab, V domains shown)
VH: B1 VH with V29L, S56T
VL: B1 VL
B25: KB001 mouse Fab FASEBA VH Y32W (Fab, V domains shown)
VH: B1 VH with V29L, Y32W
VL: B1 VL
B26: KB001 mouse Fab FASEBA VH I31E (Fab, V domains shown)
VH: B1 VH with V29L, I31E
VL: B1 VL
B27: KB001 mouse Fab FASEBA VH I31W (Fab, V domains shown)
VH: B1 VH with V29L, I31W
VL: B1 VL
B28: KB001 mouse Fab FASEBA VH Y32N (Fab, V domains shown)
VH: B1 VH with V29L, Y32N
VL: B1 VL
B29: KB001 mouse Fab FASEBA VH S30R (Fab, V domains shown)
VH: B1 VH with V29L, S30R
VL: B1 VL
B30: KB001 mouse Fab FASEBA VH G53S (Fab, V domains shown)
VH: B1 VH with V29L, G53S
VL: B1 VL
B31: KB001 mouse Fab FASEBA VH S56E (Fab, V domains shown)
VH: B1 VH with V29L, S56E
VL: B1 VL
B32: KB001 mouse Fab FASEBA VH G55N (Fab, V domains shown)
VH: B1 VH with V29L, G55N
VL: B1 VL
B33: KB001 mouse Fab FASEBA VH I31Q (Fab, V domains shown)
VH: B1 VH with V29L, I31Q
VL: B1 VL
B34: KB001 mouse Fab FASEBA VH Y32S (Fab, V domains shown)
VH: B1 VH with V29L, Y32S
VL: B1 VL
B35: KB001 mouse Fab FASEBA VH S30W (Fab, V domains shown)
VH: B1 VH with V29L, S30W
VL: B1 VL
B36: KB001 mouse Fab FASEBA VH S56M (Fab, V domains shown)
VH: B1 VH with V29L, S56M
VL: B1 VL
B37: KB001 mouse Fab FASEBA VH S57R (Fab, V domains shown)
VH: B1 VH with V29L, S57R
VL: B1 VL
B38: KB001 mouse Fab FASEBA VH G53P (Fab, V domains shown)
VH: B1 VH with V29L, G53P
VL: B1 VL
B39: KB001 mouse Fab FASEBA VH I31N (Fab, V domains shown)
VH: B1 VH with V29L, I31N
VL: B1 VL
B40: KB001 mouse Fab FASEBA VH Y32F (Fab, V domains shown)
VH: B1 VH with V29L, Y32F
VL: B1 VL
B41: KB001 mouse Fab FASEBA VH S30L (Fab, V domains shown)
VH: B1 VH with V29L, S30L
VL: B1 VL
B42: KB001 mouse Fab FASEBA VH V34M (Fab, V domains shown)
VH: B1 VH with V29L, V34M
VL: B1 VL

Target: HRgpA-6H (Porphyromonas gingivalis) (UniProt P28784)
Sequence of UniProt P28784 (P28784 228-991 limits assumed): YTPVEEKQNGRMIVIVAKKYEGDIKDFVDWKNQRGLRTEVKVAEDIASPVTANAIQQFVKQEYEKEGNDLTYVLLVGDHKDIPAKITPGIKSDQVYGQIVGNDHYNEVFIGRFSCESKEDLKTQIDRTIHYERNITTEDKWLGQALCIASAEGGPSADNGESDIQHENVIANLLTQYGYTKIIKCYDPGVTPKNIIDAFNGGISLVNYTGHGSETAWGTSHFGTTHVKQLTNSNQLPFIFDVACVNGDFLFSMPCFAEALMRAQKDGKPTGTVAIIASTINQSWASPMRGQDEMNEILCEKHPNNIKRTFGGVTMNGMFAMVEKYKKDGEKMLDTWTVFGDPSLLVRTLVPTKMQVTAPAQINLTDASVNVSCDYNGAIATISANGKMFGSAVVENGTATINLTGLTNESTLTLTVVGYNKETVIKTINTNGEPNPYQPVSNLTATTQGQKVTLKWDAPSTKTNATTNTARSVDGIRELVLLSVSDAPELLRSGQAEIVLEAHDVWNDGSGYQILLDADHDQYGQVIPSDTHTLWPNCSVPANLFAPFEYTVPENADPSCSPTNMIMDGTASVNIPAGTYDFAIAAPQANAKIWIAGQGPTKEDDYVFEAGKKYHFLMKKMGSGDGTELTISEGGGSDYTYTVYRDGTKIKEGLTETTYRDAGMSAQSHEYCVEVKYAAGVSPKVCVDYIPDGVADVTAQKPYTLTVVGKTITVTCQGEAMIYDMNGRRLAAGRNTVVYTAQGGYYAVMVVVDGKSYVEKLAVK
Test: ELISA on coated HRgpA-6H

Binder	OD450nm	Ratio OD(Variant)/OD(WT)
B1	0.446	0.826
B2	0.47 and 0.483	0.932 and 0.957
B3	0.778	0.984
B4	0.45	0.892
B5	0.646	0.817
B6	0.798	0.903
B7	0.8	0.91
B8	0.759 and 0.743	0.863 and 0.845
B9	0.438	0.868
B10	0.648	0.819
B11	0.46 and 0.467 and 0.493	0.912 and 0.926 and 0.977
B12	0.457	0.906
B13	0.437	0.866
B14	0.722	0.817
B15	0.697	0.866
B16	0.706	0.856
B17	0.71	0.807
B18	0.442 and 0.431	0.876 and 0.854
B19	0.482	0.955
B20	0.471 and 0.428	0.934 and 0.848
B21	0.748	0.85

Binder	OD450nm	Ratio OD(Variant)/OD(WT)
B22	0.855 and 0.788 and 0.824	0.972 and 0.896 and 0.937
B23	0.843 and 0.849	0.958 and 0.965
B24	0.838 and 0.844 and 0.853	0.953 and 0.96 and 0.97
B25	0.731 and 0.718 and 0.747	0.864 and 0.848 and 0.882
B26	0.42 and 0.458 and 0.428	0.833 and 0.908 and 0.848
B27	0.459	0.91
B28	0.826 and 0.775	0.976 and 0.916
B29	0.481	0.953
B30	0.686	0.861
B31	0.772 and 0.713	0.878 and 0.811
B32	0.652	0.81
B33	0.44 and 0.439	0.872 and 0.87
B34	0.717 and 0.783 and 0.718	0.847 and 0.925 and 0.848
B35	0.469	0.93
B36	0.809	0.92
B37	0.796	0.905
B38	0.754 and 0.716	0.947 and 0.899
B39	0.429	0.85
B40	0.814 and 0.807	0.962 and 0.953
B41	0.468	0.928
B42	0.793 and 0.791	0.962 and 0.959
